Numbering of substitutions follows the chain as printed. In names and notes the source's numbering stands.
B1: MORC2(1–603) S87L (domain or fragment, human, UniProt Q9Y6X9-1 1-603, looked up)
chain: MAFTNYSSLNRAQLTFEYLHTNSTTHEFLFGALAELVDNARDADATRIDIYAERREDLRGGFMLCFLDDGAGMDPSDAASVIQFGKLAKRTPESTQIGQYGNGLKSGSMRIGKDFILFTKKEDTMTCLFLSRTFHEEEGIDEVIVPLPTWNARTREPVTDNVEKFAIETELIYKYSPFRTEEEVMTQFMKIPGDSGTLVIIFNLKLMDNGEPELDIISNPRDIQMAETSPEGTKPERRSFRAYAAVLYIDPRMRIFIHGHKVQTKRLSCCLYKPRMYKYTSSRFKTRAEQEVKKAEHVARIAEEKAREAESKARTLEVRLGGDLTRDSRVMLRQVQNRAITLRREADVKKRIKEAKQRALKEPKELNFVFGVNIEHRDLDGMFIYNCSRLIKMYEKVGPQLEGGMACGGVVGVVDVPYLVLEPTHNKQDFADAKEYRHLLRAMGEHLAQYWKDIAIAQRGIIKFWDEFGYLSANWNQPPSSELRYKRRRAMEIPTTIQCDLCLKWRTLPFQLSSVEKDYPDTWVCSMNPDPEQDRCEASEQKQKVPLGTFRKDMKTQEEKQKQLTEKIRQQQEKLEALQKTTPIRSQADLKKLPLEVTTRPST
notes: also called S87L variant; source: Sf9 insect cells (baculovirus), purified as for wild type; not shown: tandem StrepII, N-terminal, cleaved
B2: MORC2(1–603) T424R (domain or fragment, human, UniProt Q9Y6X9-1 1-603, looked up)
chain: B1 chain with L87S, T424R
notes: also called T424R variant; source: Sf9 insect cells (baculovirus), purified as for wild type; not shown: tandem StrepII, N-terminal, cleaved

How the values were obtained:
[1] = biological target: the molecule itself; test: SEC-MALS; SEC-MALS with QELS, Superdex 200 (10/300), 293 K, gel filtration buffer (50 mM HEPES pH 7.5, 150 mM NaCl, 2 mM MgCl2, 0.25 mM TCEP); no nucleotide added; WT at 40 µM, S87L at 7.5 µM; monomer to dimer
[2] = biological target: the molecule itself; test: SEC-MALS; SEC-MALS with QELS, Superdex 200 (10/300), 293 K, gel filtration buffer; 2 mM Mg-AMPPNP added to the sample, 30 min on ice before injection; WT at 40 µM, T424R at 7.5 µM; monomer to dimer

Protein | stoichiometry N [1] | stoichiometry N [2]
B1 | 2 | 
B2 |  | 2

Source: paper PMC5811534, “Neuropathic MORC2 mutations perturb GHKL ATPase dimerization dynamics and epigenetic silencing by multiple structural mechanisms” (Nature Communications, 2018)
